Molecular target: the molecule itself
Experiment: cryo-EM structure; single-particle cryoEM of the TOM core complex assembled in the fly retina, FLAG-purified as a whole and reconstituted into non-ionic amphipol; graphene-coated grids; C2 symmetry; 3.3 Å

B1: Drosophila Tom40 subunit fused to a C-terminal FLAG-HA epitope tag (natural protein, D. melanogaster)
chain: AALENPGTVEELHKKCKDIQAITFEGAKIMLNKGLSNHFQVSHTINMSNVVPSGYRFGATYVGTKEFSPTEAFPVLLGDIDPAGNLNANVIHQFSARLRCKFASQIQESKVVASQLTTDYRGSDYTLSLTVANPSIFTNSGVVVGQYLQSVTPALALGSELAYQFGPNVPGRQIAIMSVVGRYTAGSSVWSGTLGQSGLHVCYYQKASDQLQIGAEVETSLRMQESVATLAYQIDLPKANLVFRGGIDSNWQIFGVLEKRLAPLPFTLALSGRMNHVKNNFRLGCGLMIG
notes: Tom40, translocation pore of the TOM complex, Drosophila melanogaster; transgene UAS-Tom40-FLAG.HA (Bloomington stock); residues 55-344 are modelled in the structure; two copies stand in the two-pore core complex; also called Tom40-FLAG-HA; Tom40_FLAG-HA; source: transgenic D. melanogaster retina (GMR-GAL4, UAS-Tom40-FLAG-HA, co-expressed with Myc); solubilised fly head membranes, purified on …
stoichiometry N: 2

— paper PMC11707698, “Structure of an ex vivoDrosophila TOM complex determined by single-particle cryoEM” (IUCrJ, 2025)
